Data reported in patent US20070041977A1 (AFFIMED THERAPEUTICS, published 2007).
No end group written: not given here.

Assays:
[1] = molecular target: T1, 37 kDa/67 kDa LRP/LR on murine neuroblastoma cells (N2a) (murine, UniProt P14206 2-295); assay: FACS on N2a cells
T1 construct: whole, on cells; also called LRP/LR on the surface of N2a cells

[2] = molecular target: T2, LRP peptide EKAVTKEEFQGEWTA (also: synthesized on a cellulose membrane); assay: peptide array on cellulose membrane, scFv 1:5000
T2 peptide: EKAVTKEEFQGEWTA
Procedure: (§1) The N-terminus of each peptide was displaced by 3 amino acids in relation to the previous peptide, so that each peptide overlapped with the previous peptide by 12 amino acids. The synthesis of the peptides was carried out on a cellulose membrane.

[3] = molecular target: T3, LRP peptide VTKEEFQGEWTAPAP (also: synthesized on a cellulose membrane); assay: peptide array on cellulose membrane, scFv 1:5000
T3 peptide: VTKEEFQGEWTAPAP
Procedure: as §1

[4] = molecular target: T4, recombinant human LRP::FLAG expressed in BHK cells transfected with SFV1-huLRP-FLAG (human, UniProt P08865 2-295); assay: Western Blot of total extracts of transfected BHK cells
T4 construct: whole, on cells; also called human 37 kDa LRP::FLAG; rec; LRP::FLAG
Procedure: (§2) BHK cells were either not transfected (n.t.) or transfected in the manner known to the person skilled in the art in the specialty with the rec. Semliki forest virus (SFV) RNAs SFV1-huLRP-FLAG or SFV1-mol.RP::FLAG. The method of preparation of rec. SFV RNA, the transfection and the analysis by Western Blotting or immunofluorescence (FIG. 12) or FACS (FIG. 13) have already been described (Gauczynski et al., 2002; Gauczynski et al., 2001b). 24 h post-transfection, total cell extracts were analyzed by Western Blotting. […] The control used was the anti-LRP antibody mLRP43512 (A), and an anti-mouse IgG-HRP-coupled secondary antibody. As a loading control, the β-actin level was determined. To this end, an anti-β-actin antibody (Chemicon) was employed. Detection was carried out by chemiluminescence (Western Lightning, NEN). […] LRP::FLAG.

[5] = molecular target: T5, recombinant murine LRP::FLAG expressed in BHK cells transfected with SFV1-moLRP::FLAG (murine, UniProt P14206 2-295); assay: as above
T5 construct: whole, on cells; also called muLRP-FLAG; murine 37 kDa LRP::FLAG
Procedure: as §2

[6] = molecular target: T6, LRP peptide TEDWSAAPTAQATEW (synthesized on a cellulose membrane); assay: peptide array on cellulose membrane, scFv 1:5000
T6 peptide: TEDWSAAPTAQATEW
Procedure: as §1

[7] = molecular target: T7, LRP peptide PSVPIQQFPTEDWSA (synthesized on a cellulose membrane); assay: peptide array on cellulose membrane, scFv 1:5000
T7 peptide: PSVPIQQFPTEDWSA
Procedure: as §1

Measured: binding result

B1: single chain antibody S18 selected from the synthetic scFv bank (scFv)
scFv: QVQLQESGGGLVQPGGSLRLSCAASGFMFSRYAMSWVRQAPGKGPEWVSGISGSGGSTYYADSVKGRFTVSRDNSKNTLYLQMNSLRAEDTAVYYCARHPGFWHFDYWGQGTLVTVSSGSASAPKLEEGEFSEARVSELTQDPAVSVALGQTVRITCQGDSLRNFYASWYQQKPGQAPTLVIYGLSKRPSGIPDRFSASSSGNTASLTITGAQAEDEADYYCNSRDRSGNHVNVLFGGGTKLTVLRQPKAAPSVTLFPPSSAAAGSHHHHHH
notes: VH and VL joined by a peptide linker (YOL), with a C-terminal histidine tag; also called scFv S18; scFvS18
binds: [1] | [2] | [3] | [4] | [5]

B2: single chain antibody N3 selected from the naive scFv bank (scFv)
scFv: EVQLVESGGGVVQPGRSLRLSCAASGFTFSSYGMHWVRQAPGKGLEWVAVIWYDGSNKYYADSVKGRFTISRDNSKNTLYLQMNSLRAEDTAVYYCATIPRSSFYYGMDVWGQGTTVTVSSGSASAPTLKLEEGEFSEARVQPVLTQPPSASGTPGQRVTISCSGSRSNIGSNTVNWYQQLPGTAPKLLIYGNNQRPSGVPERFSGSKSGTSASLAISGLQSEDEADYYCAAWDDSLTGVLFGGGTKLTVLGQPKAAPSVTLFPPSSAAAGSHHHHHH
notes: VH and VL joined by a peptide linker (YOL), with a C-terminal histidine tag; also called scFv N3; scFvN3
binds: [1] | [6] | [7] | [4] | [5]
